{"source": "paper PMC3161980", "target": "plate-bound HA", "experiment": "ELISA", "note": "Several values for one entry are separate records, joined by “and”; a condition that tells them apart may be missing. Equal entries are not always repeated.", "data": [{"substance": "NKp30-Fc: long (canonical) ectodomain of NKp30 fused to the Fc portion of human IgG1 (from UniProt O14931 19-135) (Fc fusion)", "values": [{"measurement": "fold stronger ELISA labeling than NKp46-Fc", "result": "1.5 fold and 2 fold"}]}]}
